Drawing on US20090104149A1, this text covers Binding Ratio (BR), log10 of IC50 of test compound over IC50 of cyclosporin A for ten substances.

This experiment deals with human recombinant cyclophilin (human) (UniProt P62937). Nature of the experiment: competitive ELISA, human recombinant cyclophilin on coated BSA-cyclosporin A; reference cyclosporin A. Background: An ELISA detects its analyte on a solid surface through an enzyme-linked reagent.
Sequence of human recombinant cyclophilin (human) (P62937 whole entry): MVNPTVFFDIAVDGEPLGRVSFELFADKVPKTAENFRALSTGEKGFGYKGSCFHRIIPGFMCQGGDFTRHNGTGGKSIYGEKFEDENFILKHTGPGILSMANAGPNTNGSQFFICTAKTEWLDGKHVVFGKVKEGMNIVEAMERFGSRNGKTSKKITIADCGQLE
For the substance “[8′-hydroxy-MeBmt]^5-Ciclosporin (peptide)”, the Binding Ratio (BR), log10 of IC50 of test compound over IC50 of cyclosporin A turned out to be 0.35 log10 ratio.

As to [Ethyl-Val]^4-Ciclosporin (peptide), the Binding Ratio (BR), log10 of IC50 of test compound over IC50 of cyclosporin A came to 0 log10 ratio.

Turning to [Ethyl-lle]^4-Ciclosporin (peptide), the Binding Ratio (BR), log10 of IC50 of test compound over IC50 of cyclosporin A worked out at 0.1 log10 ratio.

[MeAla]^6-Ciclosporin (peptide): the Binding Ratio (BR), log10 of IC50 of test compound over IC50 of cyclosporin A is -0.4 log10 ratio.

[MeVal]^4-Ciclosporin (peptide): the Binding Ratio (BR), log10 of IC50 of test compound over IC50 of cyclosporin A stood at 0.1 log10 ratio.

For the substance [MeVal]^5-Ciclosporin (peptide), the Binding Ratio (BR), log10 of IC50 of test compound over IC50 of cyclosporin A was found to be 0.4 log10 ratio.

On to [Melle]^4-Ciclosporin (peptide), for which the Binding Ratio (BR), log10 of IC50 of test compound over IC50 of cyclosporin A was -0.2 log10 ratio.

Regarding “[dihydro-MeBmt]^1-[γ-hydroxy-MeLeu]^4-Ciclosporin (peptide)”, the Binding Ratio (BR), log10 of IC50 of test compound over IC50 of cyclosporin A amounted to 0.1 log10 ratio.

Regarding “[γ-hydroxy-MeLeu]^4-Ciclosporin (peptide)”, the Binding Ratio (BR), log10 of IC50 of test compound over IC50 of cyclosporin A was determined as 0.4 log10 ratio.

Regarding “[γ-hydroxy-MeLeu]^9-Ciclosporin (peptide)”, the Binding Ratio (BR), log10 of IC50 of test compound over IC50 of cyclosporin A is 0.15 log10 ratio.
